The text below walks through data of paper PMC2423479.

The experiment concerns the target Pgc ORF1, (His)6-tagged, 71-residue oligopeptide encoded by Drosophila polar granule component (pgc) ORF1 (Drosophila melanogaster). The experiment can be described thus: SEC; refolded (His)6-tagged Pgc ORF1 on a size-exclusion column; two species migrating at 18 kDa and 36 kDa; dimer to monomers; column and buffer not stated. (In gel filtration, larger molecules generally elute earlier.)

Consider “Pgc ORF1, (His)6-tagged, 71-residue oligopeptide encoded by Drosophila polar granule component (pgc) ORF1 (natural protein)”, for which the stoichiometry N (usually the number of molecules, sites or subunits per partner or assembly) was determined as 2.
